Data on four substances can be found in US20180148497A1.

For assay [1], the target named is cell surface Env of HIV-1 infected (p24+) CD4+ T cells (IMCs subtype AE CM235, subtype B BaL, subtype C 1086.C, as a group). As to the kind of experiment: flow cytometry, negative control staining of p24+ IMC-infected CD4+ T cells (FIG. 27).
Assay [2] shares this target. Description: flow cytometry, staining of p24+ CD4+ T cells infected with BaL, CM235 or 1086.C IMC (FIG. 27).
Assay [3] shares this target. Description: flow cytometry, indirect staining of p24+ CD4+ T cells infected with BaL, CM235 or 1086.C IMC (FIG. 27).

With “secondary conjugated Abs (secondary fluoresceinated anti-human IgG Abs) (antibody)”, the % of HIV-1 infected (p24+) CD4+ T cells recognized in assay [1] was under 5%.
Take “HIV-1 × Fluorescein Bi-Specific Diabody (7B2 × 4420) (bispecific antibody)”: in assay [2], the % of HIV-1 infected (p24+) CD4+ T cells recognized was in the range of 66 to 78%.
In the case of “7B2 mAb (anti-gp41 cluster I) (antibody)”, in assay [3], the % of HIV-1 infected (p24+) CD4+ T cells recognized lay within 24 to 38%.
Palivizumab mAb (anti-RSV) (antibody) gave a % of HIV-1 infected (p24+) CD4+ T cells recognized in assay [1] of under 5%.
